Ki data for one molecule are collected here from publication doi:10.1101/2022.12.29.522231 (bioRxiv, 2022).

For experiment [1], the target named is catalytic domain of MMP-14 residues 110-300 (human, UniProt P50281 110-300). As to the kind of experiment: enzyme inhibition assay.
The target of experiment [2] is catalytic domain of MMP-3 (WT), activated (UniProt P08254 100-272). As to the kind of experiment: enzyme inhibition assay.
Sequence of catalytic domain of MMP-3 (WT), activated (P08254 100-272): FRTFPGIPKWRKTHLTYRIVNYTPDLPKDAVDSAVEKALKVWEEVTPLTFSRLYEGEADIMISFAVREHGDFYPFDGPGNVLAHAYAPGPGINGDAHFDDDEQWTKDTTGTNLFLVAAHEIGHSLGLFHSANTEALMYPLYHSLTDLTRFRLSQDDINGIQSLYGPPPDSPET

B1: WT N-TIMP2 (N-terminal domain of tissue inhibitor of metalloproteinases-2), purified (domain or fragment, human, UniProt P16035 27-153, looked up)
chain: CSCSPVHPQQAFCNADVVIRAKAVSEKEVDSGNDIYGNPIKRIQYEIKQIKMFKGPEKDIEFIYTAPSSAVCGVSLDVGGKKEYLIAGKAEGDGKMHITLCDFIVPWDTLSTTQKKSLNHRYQMGCE
Usually Ki stands for the dissociation constant of the complex between target and ligand, obtained from inhibition or displacement. A lower Ki goes with a stronger hold on the target. On to B1, for which the figures for the Ki in experiment [1] and in experiment [2] were 0.53 ± 0.1 nM and 5.9 ± 0.7 nM, respectively.
